Consider 6 molecules from US7906485B2, “Erythropoietin receptor peptide formulations and uses” (Affymax, Inc., priority 2005, dated 2011).

Bridge positions count the residues as written; N and C are the ends. Square brackets hold non-standard residues; d marks the D form. Ends that are not written are not given here. 1Nal = N[C@@H](Cc1cccc2ccccc12)C(=O)O; Sar = CNCC(=O)O

Data set [1] has as its system human, bone marrow derived CD34+ cells. Put plainly: C/BFU-e assay (erythroid colonies). It counts as cell-based. The protocol:
EPO-R signaling stimulates the differentiation of bone marrow stem cells into proliferating red blood cell precursors. This assay measures the ability of test peptides to stimulate the proliferation and differentiation of red blood cell precursors from primary human bone marrow pluripotent stem cells.
For this assay, serial dilutions of test peptide are made in IMDM medium (Gibco) supplemented with 10% FBS (Hyclone). These serial dilutions, or positive control EPO peptide, are then added to methylcellulose to give a final volume of 1.5 mL. The methylcellulose and peptide mixture is then vortexed thoroughly. Aliquots (100,000 cells/mL) of human, bone marrow derived CD34+ cells (Poietics/Cambrex) are thawed. The thawed cells are gently added to 0.1 mL of 1 mg/ml DNAse (Stem Cells) in a 50 mL tube. Next, 40-50 mL IMDM medium is added gently to cells: the medium is added drop by drop along the side of the 50 mL tube for the first 10 mL, and then the remaining volume of medium is slowly dispensed along the side of the tube. The cells are then spun at 900 rpm for 20 min, and the media removed carefully by gentle aspiration. The cells are resuspended in 1 ml of IMDM medium and the cell density per mL is counted on hemacytometer slide (10 μL aliquot of cell suspension on slide, and cell density is the average count×10,000 cells/ml). The cells are then diluted in IMDM medium to a cell density of 15,000 cells/mL. A 100 μL of diluted cells is then added to each 1.5 mL methyl cellulose plus peptide sample (final cell concentration in assay media is 1000 cells/mL), and the mixture is vortexed. Allow the bubbles in the mixture to disappear, and then aspirate 1 mL using blunt-end needle. Add 0.25 mL aspirated mixture from each sample into each of 4 wells of a 24-well plate (Falcon brand). Incubate the plated mixtures at 37° C. under 5% CO2 in a humid incubator for 14 days. Score for the presence of erythroid colonies using a phase microscope (5×-10× objective, final magnification of 100×). The concentration of test peptide at which the number of formed colonies is 90% of maximum, relative to that observed with the EPO positive control, is recorded as the EC90 [See Table 2: C/BFU-e EC90].

The test system of data set [2] is erythropoiesis. The experiment in a line: Pharmacology studies in animals (erythropoiesis). It counts as in vivo, mice, rats, dogs, rabbits and monkeys.
The test system of data set [3] is erythropoiesis. The experiment in a line: Phase 1 study in normal healthy volunteers: pharmacodynamics. It counts as in vivo, human. The source says:
(§1) Peptide I has been tested in […] in one Phase 1 study. This first-in-human study with Peptide I was a randomized, double-blind, placebo-controlled, single-dose, IV, escalating dose, safety and tolerability trial. The primary objectives of the study were to evaluate the safety and pharmacokinetics of Peptide I, and to establish a pharmacologically active dose (PAD). Cohorts of seven male volunteers were scheduled to receive single doses of Peptide I or placebo in a 5:2 ratio. Cohorts were to be added at increasing dose levels until a PAD, as determined by an increase in hemoglobin from baseline values, was observed, at which point the dose level identified as the PAD would be repeated in another cohort of volunteers.
(§2) The study was initiated in four cohorts were enrolled in a consecutive manner at Peptide I doses of 0.025, 0.05, 0.1 mg/kg, and […], respectively (single dose per cohort). […] As such, the study was terminated.

The nature of data set [4]: Pharmacokinetic studies in dogs. It counts as in vivo.
Data set [5] in a line: Pharmacokinetic studies in rats. It counts as in vivo.
The nature of data set [6]: Phase 1 study in normal healthy volunteers: pharmacokinetics. It counts as in vivo, human.
Text: as §1, §2
In the 0.025 mg/kg dose group, Peptide I concentration peaked between 5 and 15 minutes, while tmax approached 1 hour for the 0.1 mg/kg dose.

Data set [7] is described as follows: Phase 1 study in normal healthy volunteers: safety. The class given is in vivo, human.
Text: as §1, §2

Data set [8] in a line: Pharmacokinetic studies in rats, dogs and monkeys (general statements). The class given is in vivo.
Data set [9] addresses T1, recombinant EPO-R produced in Chinese Hamster Ovary cells as a fusion protein to a portion of the human … (human, UniProt P19235 25-250).
T1 sequence (looked up): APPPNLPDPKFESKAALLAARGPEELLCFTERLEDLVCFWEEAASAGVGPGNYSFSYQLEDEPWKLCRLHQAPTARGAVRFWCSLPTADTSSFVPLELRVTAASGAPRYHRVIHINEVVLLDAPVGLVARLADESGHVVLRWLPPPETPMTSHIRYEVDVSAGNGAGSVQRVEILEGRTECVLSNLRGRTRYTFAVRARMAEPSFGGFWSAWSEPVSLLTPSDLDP
The experiment in a line: AlphaQuest bead proximity competition; competitor: biotinylated tracer peptide SEQ ID NO: 4 (30 nM) on streptavidin donor beads, EPO-R fusion on acceptor beads.

Data set [10] has as its target T2, Recombinant Human EPO R/Fc Chimera (human, UniProt P19235 25-250).
T2 construct: extracellular domain; Bought: R&D Systems, catalog number 963-ER; also called recombinant EPOr extracellular domain fused to the Fc portion of human IgG1; recombinant erythropoietin receptor; not shown: Fc portion of human IgG1
T2 sequence (looked up): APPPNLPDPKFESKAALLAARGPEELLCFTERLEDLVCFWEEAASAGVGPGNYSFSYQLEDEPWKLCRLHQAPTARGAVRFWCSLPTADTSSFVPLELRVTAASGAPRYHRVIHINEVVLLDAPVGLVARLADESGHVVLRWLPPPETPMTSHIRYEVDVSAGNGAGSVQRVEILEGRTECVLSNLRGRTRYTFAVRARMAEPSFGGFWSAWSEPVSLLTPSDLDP
The experiment in a line: radioligand competition; competitor: 125I-EPO; EPO R/Fc chimera 100 pg/tube, Protein-G Sepharose pull-down, gamma counting.

Setting [11] is: five-sixth nephrectomy rats, IV 9.87 mg/kg.

Consider “Peptide IV: peptide dimer of SEQ ID NO: 1 monomers (AcG)GLYACHMGPIT(1-nal)VCQPLRK (Ac-GGLYACHMGPIT[1Nal]VCQPLRK; disulfide 6-15 (inferred); not fully specified (residue 1); printed as (AcG)GLYACHMGPIT(1-nal)VCQPLRK; also: homodimer joined through a branched tertiary amide linker on the Lys20 side chain, PEG carried on the linker)”, for which, in [1] (Table 4), the EC90 (in general, the point of the concentration-response curve where the effect stands at 90%) amounted to 6.2 nM.
For “peptide dimer of SEQ ID NO: 2 monomers (AcG)GLYACHMGPIT(1-nal)VCQPLR(MeG)K; a fully synthetic EPO receptor agonist (Ac-GGLYACHMGPIT[1Nal]VCQPLR[Sar]K; disulfide 6-15 (inferred); not fully specified (residue 1); printed as (AcG)GLYACHMGPIT(1-nal)VCQPLR(MeG)K; also: homodimer joined through a branched tertiary amide linker on the Lys21 side chain, PEG carried on the linker) [Peptide I]”, the “rise in reticulocytes and RBCs as measured by hemoglobin levels” value in the data set with erythropoiesis [2] (rats and monkeys) is reported as “dose proportional”. Also, the stimulation of erythropoiesis result with erythropoiesis [2] (single or repeat dose, mice, rats (normocythemic and nephrectomized), dogs, rabbits, monkeys) is “potent stimulator of erythropoiesis with dose-dependent activity”. The “average hemoglobin levels at Day 42” value with erythropoiesis [3] (0.1 mg/kg) is “returned to baseline”. In the data set on erythropoiesis [3] (0.1 mg/kg, 10 recipients), the “average maximum increase from baseline in hemoglobin” value was 1.36 ± 0.39 g/dL. Moreover, the “difference in change from baseline hemoglobin versus placebo” value in the data set on erythropoiesis [3] (0.1 mg/kg, at Day 42 as throughout the study) is recorded as not below 0.5 g/dL. Also, the “time of maximum reticulocyte counts postdose” value in the data set with erythropoiesis [3] (all dose cohorts) was “approximately 7 days”. Also, the “hemoglobin response and change from baseline (mean and maximum)” value in the data set with erythropoiesis [3] (over 28 days post-dose) was “dose-dependent increases”. For the same molecule, the “Reticulocyte count (absolute number and percent)” value with erythropoiesis [3] (single IV 0.025, 0.05, 0.1 mg/kg) is “dose-dependent increase”. Also, the “PAD associated with at least a 1.0 g/dL increase in hemoglobin” value with erythropoiesis [3] (single IV dose, NHV) is 0.1 mg/kg. Besides, in the data set with erythropoiesis [3] (with increasing dose), the “Serum EPO levels” value is given as “transiently decreased”. The “Elimination half life (t1/2)” value in data set [4] amounted to 73.7 h. Also, in data set [5] (setting [11]), the clearance (usually the volume of plasma or blood freed of the substance per unit of time) is reported as 0.763 mL/h/kg and the t1/2 entry is on record as “approximately 48 hours”. This molecule gave a clearance in data set [5] (normocythemic rats) of 1.44 mL/h/kg. Besides, the “Elimination half life (t1/2)” value in [5] (rats) lay within 21.5 to 30.7 h. In data set [6] (0.025 mg/kg), the “Plasma clearance, geometric mean” value came to 78.0 mL/h; the “Volume of distribution, mean” value was 2165 mL; the “half-life, mean” value came to 19.2 h; the “half-life, range” value fell in the range of 16.7 to 21.9 h. The “plasma concentrations quantifiable (>25 ng/mL) up to” value (“plasma concentrations quantifiable” for short) in [6] (0.025 mg/kg) is recorded as “up to 96 hours”. In addition, in [6] (0.05 mg/kg), the “Plasma clearance, geometric mean” value worked out at 70.7 mL/h; the “Volume of distribution, mean” value is listed as 1903 mL; the “half-life, mean” value amounted to 18.7 h; the “half-life, range” value was 15.3 to 25.1 h. In addition, the “plasma concentrations quantifiable” value in data set [6] (0.05 mg/kg) was not above 5 days. In data set [6] (0.1 mg/kg), the “Plasma clearance, geometric mean” value turned out to be 59.2 mL/h; the “Volume of distribution, mean” value turned out to be 2010 mL; the “half-life, mean” value was found to be 23.5 h; the “half-life, range” value lay within 17.7 to 33.1 h. In addition, in data set [6] (0.1 mg/kg), the “plasma concentrations quantifiable” value was not above 7 days and the tmax was approximately 1 h. For the same molecule, in data set [6] (dose normalized, ANOVA), the “AUC(0-infinity) relationship with dose” value is reported as “non-linearity at the highest dose” and the “Cmax relationship with dose” value was “linear relationship with dose”. Further, the “plasma concentration at which metabolic/elimination processes saturate” value in data set [6] (human, in vivo) is more than 400 ng/mL. In data set [7] (Peptide I group), the “number of adverse events” value was 22. For the same molecule, the “AEs considered probably not related to the study drug” value in data set [7] (Peptide I recipients) is on record as 15/22. Also, in data set [7] (human, in vivo), the “Serious Adverse Events or withdrawals due to an AE” value is “no Serious Adverse Events (SAEs) or withdrawals from the study due to an AE”; the “changes in vital signs, ECGs or laboratory values” is listed as “no clinically significant changes”; the “subjects who developed antibodies specific to Peptide I” value is listed as “None”. Besides, in [7] (single IV doses of 0.025, 0.05 or 0.1 mg/kg), the “overall safety and tolerability” value was “safe and well tolerated”. In data set [7] (subjects dosed with Peptide I), this molecule registered an abdominal pain of 10.0%, a headache of 20.0%, a nasopharyngitis of 10.0% and a nausea of 10.0%. The “subjects who experienced adverse events” value in [7] (subjects receiving Peptide I) is listed as 11 of 20. The molecule further came in with an EC90 in data set [1] (Table 6) of 3 nM. For the same molecule, the plasma persistence entry in data set [8] (in comparison to currently marketed rHuEPO products) was “sustained plasma persistence”. Also, the Biodistribution result in data set [8] (in vivo) is listed as “primarily to the plasma fraction”.
In [1] (Table 2), “peptide dimer of SEQ ID NO: 3 monomers (AcG)GLYACHMGPIT(1-nal)VCQPLR(MeG) [Peptide III] (Ac-GGLYACHMGPIT[1Nal]VCQPLR[Sar]; disulfide 6-15 (inferred); not fully specified (residue 1); printed as (AcG)GLYACHMGPIT(1-nal)VCQPLR(MeG); also: homodimer, C-termini joined to the alpha- and epsilon-amino groups of a lysine linker, spacer and PEG on the linker)” registered an EC90 of 2.7 nM.
For “peptide dimer of SEQ ID NO: 3 monomers (AcG)GLYACHMGPIT(1-nal)VCQPLR(MeG) [Peptide II] (Ac-GGLYACHMGPIT[1Nal]VCQPLR[Sar]; disulfide 6-15 (inferred); not fully specified (residue 1); printed as (AcG)GLYACHMGPIT(1-nal)VCQPLR(MeG); also: homodimer, C-termini joined to the alpha- and epsilon-amino groups of a lysine linker, spacer and PEG on the linker)”, in [1] (Table 2), it took 2.2 nM to reach the 90% level (EC90).

B1: Peptide II (SEQ ID NO: 3) (peptide)
peptide: Ac-GGLYACHMGPIT[1Nal]VCQPLR[Sar]
modifications: disulfide 6-15; not fully specified (C-terminus); printed as (AcG)GLYACHMGPIT(1-nal)VCQPLR(MeG); also: homodimer of two monomers, C-termini joined to alpha- and epsilon-amino groups of a lysine linker with spacer and PEG
Consider B1, for which the IC50 (in general, the concentration needed to halve the response being measured) in data set [9] was determined as 0.11 nM.

B2: Peptide I (SEQ ID NO: 2) (peptide)
peptide: Ac-GGLYACHMGPIT[1Nal]VCQPLR[Sar]K
modifications: disulfide 6-15; not fully specified (residue 21); printed as (AcG)GLYACHMGPIT(1-nal)VCQPLR(MeG)K; also: PEGylated homodimer, second copy joined via the branched linker on K21 epsilon-amine, linker, PEG size and linkage not given here
Turning to B2, the IC50 in data set [10] came out at 111 nM.
